Laboratory results reported in patent US20210063414A1, “METHODS FOR PREVENTING AND/OR TREATING BONE LOSS CONDITIONS BY MODULATING IRISIN” (Dana-Farber Cancer Institute, Inc., priority 2018, published 2021).

Biological target: T1, MLO-Y4 cell surface proteins (Mus musculus, UniProt O88492)
T1 construct: endogenous in cells; host or cells: MLO-Y4
T1 sequence (O88492 1-1403): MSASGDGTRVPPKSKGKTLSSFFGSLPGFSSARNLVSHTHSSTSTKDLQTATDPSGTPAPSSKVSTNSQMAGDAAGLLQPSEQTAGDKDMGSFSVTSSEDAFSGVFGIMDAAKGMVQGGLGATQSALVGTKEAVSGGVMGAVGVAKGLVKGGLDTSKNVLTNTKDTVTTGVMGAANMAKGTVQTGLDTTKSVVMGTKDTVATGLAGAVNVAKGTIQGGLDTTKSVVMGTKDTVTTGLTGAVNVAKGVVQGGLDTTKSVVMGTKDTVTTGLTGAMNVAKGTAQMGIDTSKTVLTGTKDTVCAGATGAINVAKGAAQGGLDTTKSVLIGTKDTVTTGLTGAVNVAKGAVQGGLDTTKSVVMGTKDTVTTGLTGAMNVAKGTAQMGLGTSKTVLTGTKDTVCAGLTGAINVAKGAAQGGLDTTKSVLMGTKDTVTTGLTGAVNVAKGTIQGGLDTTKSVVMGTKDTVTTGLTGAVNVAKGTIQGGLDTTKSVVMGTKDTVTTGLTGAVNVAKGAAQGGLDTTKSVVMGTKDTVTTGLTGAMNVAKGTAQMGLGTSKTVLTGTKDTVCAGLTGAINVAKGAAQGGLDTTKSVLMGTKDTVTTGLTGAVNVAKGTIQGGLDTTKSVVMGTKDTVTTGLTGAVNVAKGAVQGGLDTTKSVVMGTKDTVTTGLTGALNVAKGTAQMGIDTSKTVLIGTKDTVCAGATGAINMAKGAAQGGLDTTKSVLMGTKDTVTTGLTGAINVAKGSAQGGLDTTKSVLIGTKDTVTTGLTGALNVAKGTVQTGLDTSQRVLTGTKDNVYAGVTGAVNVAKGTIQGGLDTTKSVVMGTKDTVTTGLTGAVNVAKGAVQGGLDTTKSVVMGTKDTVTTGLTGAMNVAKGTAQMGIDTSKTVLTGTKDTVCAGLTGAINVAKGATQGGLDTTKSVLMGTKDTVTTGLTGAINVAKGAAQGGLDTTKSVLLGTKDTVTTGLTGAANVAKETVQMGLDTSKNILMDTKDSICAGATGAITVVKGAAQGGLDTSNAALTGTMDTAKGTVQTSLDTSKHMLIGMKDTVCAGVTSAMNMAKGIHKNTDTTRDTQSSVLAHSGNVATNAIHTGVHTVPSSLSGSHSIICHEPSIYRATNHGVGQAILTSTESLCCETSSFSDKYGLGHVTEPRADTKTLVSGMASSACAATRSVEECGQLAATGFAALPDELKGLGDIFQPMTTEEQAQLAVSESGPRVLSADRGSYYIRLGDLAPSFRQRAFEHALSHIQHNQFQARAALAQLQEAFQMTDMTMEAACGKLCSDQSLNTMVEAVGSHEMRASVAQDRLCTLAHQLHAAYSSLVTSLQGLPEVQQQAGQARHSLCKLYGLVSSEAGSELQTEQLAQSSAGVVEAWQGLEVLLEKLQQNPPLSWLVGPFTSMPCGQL
Assay: Crosslinking/co-immunoprecipitation/mass spectrometry (TMT quantitative proteomics) to identify irisin receptors
Type: binding
Conditions: co-precipitated protein Plin4 (PLIN4_MOUSE)
Method in brief: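 Relative protein abundance came from 6-plex TMT MS3 quantitation on an Orbitrap Fusion Lumos, after in-gel trypsin digestion of Coomassie-stained SDS-PAGE lanes. Input was a Ni-NTA pulldown (250 mM imidazole elution) of lysates from murine MLO-Y4 cells. These cells were treated on ice with His-tagged irisin or adipsin (10 nM, 20 min) in serum-free medium, then crosslinked with 1.5 mM DTSSP for 30 min.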

B1: irisin: secreted cleaved form of FNDC5; recombinant human/mouse irisin with C-terminal his tag produced in HEK293 cells (protein)
chain: DSPSAPVNVTVRHLKANSAVVSWDVLEDEVVIGFAISQQKKDVRMLRFIQEVNTTTRSCALWDLEEDTEYIVHVQAISIQGQSPASEPVLFKTPREAEKMASKNKDEVTMKE
modifications: left off: small tags and cut ends
notes: secreted cleaved form of FNDC5; recombinant human/mouse irisin with C-terminal his tag produced in HEK293 cells
- TMT signal-to-noise ratio: 18.9196
- irisin/adipsin TMT signal-to-noise ratio: 0.169
